Experimental data: publication PMC6488192 (2019)

Experiments:
Conditions in all cases: parent: 1; read off a plot
GAP1, endogenous [1] = assay: IgG pulldown of TAP-tagged REH2, western blot quantification
GAP1, endogenous [2] = assay: IgG pulldown of TAP-tagged H2F1, western blot quantification
[3] = molecular target: REH2-Associated Factor 1 (^H2F1), endogenous (UniProt Q585P3); assay: as above
[4] = molecular target: RNA Editing Helicase 2 (REH2), endogenous (UniProt Q581T1); assay: as above
REL1 ligase, endogenous = REL1 ligase, endogenous (UniProt P86927); assay: IgG pulldown of TAP-tagged H2F1, self-adenylation reaction quantification

Sequence of ^H2F1 wild type with TAP tag (from UniProt Q585P3) Z2 R/K>A (Q585P3 23-524, change not shown): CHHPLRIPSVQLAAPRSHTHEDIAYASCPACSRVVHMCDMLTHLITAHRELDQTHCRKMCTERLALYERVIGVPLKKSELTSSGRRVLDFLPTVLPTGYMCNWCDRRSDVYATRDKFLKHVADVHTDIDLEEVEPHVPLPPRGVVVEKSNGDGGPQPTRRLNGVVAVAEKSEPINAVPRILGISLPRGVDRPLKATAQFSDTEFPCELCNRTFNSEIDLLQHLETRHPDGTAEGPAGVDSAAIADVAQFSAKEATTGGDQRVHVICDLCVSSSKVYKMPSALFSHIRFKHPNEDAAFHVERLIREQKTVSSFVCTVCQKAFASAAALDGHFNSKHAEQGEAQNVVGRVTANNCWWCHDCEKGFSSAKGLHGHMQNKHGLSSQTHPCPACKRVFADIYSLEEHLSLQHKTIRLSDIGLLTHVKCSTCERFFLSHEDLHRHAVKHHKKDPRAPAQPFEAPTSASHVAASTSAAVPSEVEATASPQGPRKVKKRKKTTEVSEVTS
Sequence of ^H2F1 wild type with TAP tag (from UniProt Q585P3) Z5 R/K>A (Q585P3 23-524, change not shown): as above
Sequence of ^H2F1 wild type with TAP tag (from UniProt Q585P3) Z1 R/K>A (Q585P3 23-524, change not shown): as above
Sequence of ^H2F1 wild type with TAP tag (from UniProt Q585P3) Z3 R/K>A (Q585P3 23-524, change not shown): as above
Sequence of REH2-Associated Factor 1 (^H2F1), endogenous (Q585P3 23-524): as the sequence (Q585P3 23-524, change not shown) above

Substance | ratio to parent (GAP1, endogenous [1]) | ratio to parent (GAP1, endogenous [2]) | ratio to parent [3] | ratio to parent [4] | ratio to parent (REL1 ligase, endogenous)
RNA Editing Helicase 2 (REH2) wild type with TAP tag (from UniProt Q581T1) K1078A; A1086D | 0.17 |  |  |  | 
^H2F1 wild type with TAP tag (from UniProt Q585P3) Z3 R/K>A |  | 1 | 1.2 | 0.85 | 0.62
^H2F1 wild type with TAP tag (from UniProt Q585P3) Z2 R/K>A |  | 0.95 | 0.83 | 0.78 | 0.83
RNA Editing Helicase 2 (REH2) wild type with TAP tag (from UniProt Q581T1) R1979A | 1 |  |  |  | 
RNA Editing Helicase 2 (REH2) wild type with TAP tag (from UniProt Q581T1) H1998E | 0.52 |  |  |  | 
^H2F1 wild type with TAP tag (from UniProt Q585P3) Z1 R/K>A |  | 0.85 | 0.87 | 0.75 | 0.72
RNA Editing Helicase 2 (REH2) wild type with TAP tag (from UniProt Q581T1) R2023A | 0.66 |  |  |  | 
^H2F1 wild type with TAP tag (from UniProt Q585P3) Z5 R/K>A |  | 0.99 | 1 | 0.97 | 0.77
